Molecular target: T1, β-casein (Sigma, St Louis, Mo.), P02666
T1 chain: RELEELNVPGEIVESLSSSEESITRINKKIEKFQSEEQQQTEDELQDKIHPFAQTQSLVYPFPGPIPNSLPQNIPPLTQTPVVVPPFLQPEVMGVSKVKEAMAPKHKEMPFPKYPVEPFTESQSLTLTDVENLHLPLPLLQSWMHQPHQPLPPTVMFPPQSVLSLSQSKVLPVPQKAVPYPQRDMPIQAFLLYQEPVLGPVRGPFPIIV

B1: PRSS11-L CDS-HAHIS (recombinant human PRSS11-L protease with a C-terminal HA6HIS epitope/affinity tag, expressed in baculovirus-infected Sf9 cells) (protein)
chain: MHLALPASAGLHQLSSPRYKFNFIADVVEKIAPAVVHIELFLRHPLFGRNVPLSSGSGFIMSEAGLIITNAHVVSSNSAAPGRQQLKVQLQNGDSYEATIKDIDKKSDIATIKIHPKKKLPVLLLGHSADLRPGEFVVAIGSPFALQNTVTTGIVSTAQREGRELGLRDSDMDYIQTDAIINYGNSGGPLVNLDGEVIGINTLKVTAGISFAIPSDRITRFLTEFQDKQIKDWKKRFIGIRMRTITPSLVDELKASNPDFPEVSSGIYVQEVAPNSPSQRGGIQDGDIIVKVNGRPLVDSSELQEAVLTESPLLLEVRRGNDDLLFSIAPEVVM
- cleavage of β-casein, SDS-PAGE with Coomassie Brilliant Blue staining: The proteolytic activity of PRSS11-L was further confirmed by its cleavage of casein.

Reference: patent US20040005659
